± gives the standard deviation of the averaged measurements.
Test system: ATP
Assay: switch fluorescence ratio, 500 uM ATP over buffer (Cy3 cluster intensity, sum of 5 cycles each) (fold (ratio)); higher = stronger signal-on switching upon ATP binding; sequences stand for … in TCGTCGGCAGCGTCAGATGTGTATAAGAGACAGTTTTTTTTTTTTTTTTTTTTTTTTT…TC
Details: aptamer strand: ATP DNA aptamer (quencher-CACCTGGGGGAGTATTGCGGAGGAAGG + anchor), 100 nM annealed; ATP concentration: 500 uM
How it was run: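 The quencher-labelled ATP aptamer, at 100 nM, was annealed to Cy3-labelled switching-strand clusters on a modified Illumina MiSeq flow-cell. The clusters were imaged in selection buffer, then after 15 min with 500 uM ATP at 22 °C, and this buffer/ATP cycle ran five times with NaOH stripping and re-annealing between runs. Per-cluster fluorescence ratios, summed target-cycle over summed buffer-cycle Cy3 intensity, were averaged per switch-domain sequence. Clusters outside 100-1000 RFU were excluded.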
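Note: ATP exposure 15 min at 22 °C before imaging.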

| Sequence | switch fluorescence ratio |
| --- | --- |
| TAGGCCTAAT | 0.9715 ± 0.003 |
| ACCCGAGTTT | 1 ± 0.018 |
| TTTTTCCAAC | 1.02 ± 0.012 |
| TTAACTGGGG | 1.11 ± 0.13 |
| AGATTGCTTG | 0.977 ± 0.03 |
| CGGTAGGCGG | 0.971 ± 0.018 |
| GCGGTGTTTT | 1.03 ± 0.05 |
| TGGGAAATTT | 1.1 ± 0.12 |
| GGTGACTGCT | 0.9543 ± 0.0024 |
| GAGCTGGTGG | 0.96 ± 0.019 |
| CAGAGGTATG | 1.01 ± 0.028 |
| GCGGGAGTCC | 1.13 ± 0.2 |
| GATGATGATG | 1.014 ± 0.0022 |
| GGGTGCGGAC | 1.01 ± 0.042 |
| AGCTGCACAT | 1.048 ± 0.0022 |
| GTTAGCTTAG | 0.99 ± 0.025 |
| CTCGGGCACG | 0.989 ± 0.046 |
| TAGATTGGGT | 0.976 ± 0.033 |
| TGTTACACCT | 1.23 ± 0.025 |
| CTTTTAGTAG | 0.974 ± 0.015 |
| ATGGTAGGTG | 1.04 ± 0.083 |
| GTTGTGATTT | 0.953 ± 0.032 |
| GGGCTAGGAG | 0.987 ± 0.014 |

| Sequence | switch fluorescence ratio |
| --- | --- |
| TTGTCAGCGT | 0.997 ± 0.012 |
| TCTATGCTTC | 1.9 ± 1.1 |
| TTTTTCTCAG | 1.01 ± 0.031 |
| TTATAGGGCG | 1.02 ± 0.047 |
| TATAAGATGT | 0.983 ± 0.025 |
| ACGAAGGGAG | 1.02 ± 0.031 |
| TTGTTATGGT | 1 ± 0.025 |
| ATATCCCTGT | 1.009 ± 0.0049 |
| TTAAGCACAT | 1.202 ± 0.011 |
| ACACAGGTAT | 1.12 ± 0.059 |
| GATTAGGCAT | 0.996 ± 0.039 |
| GGTACGGCAA | 1.09 ± 0.019 |
| GACGTGTGTC | 0.983 ± 0.023 |
| TGTTCGGTCG | 1.005 ± 0.0014 |
| GGGGGAGGAT | 1.03 ± 0.057 |
| AATAAGGGGA | 1.02 ± 0.077 |
| TAGTTGGGGT | 1 ± 0.03 |
| CAGTGGGAAA | 1.01 ± 0.029 |
| TGGGTTTTAG | 0.977 ± 0.013 |
| CATGTAATTG | 1.02 ± 0.015 |
| TTGAGAGATT | 1.011 ± 0.0091 |
| TTTTAGTAGC | 1.04 ± 0.0058 |
| TGACGTGCGT | 1.02 ± 0.012 |

| Sequence | switch fluorescence ratio |
| --- | --- |
| GCTTGTAGGG | 0.969 ± 0.011 |
| TCGTAAAGAG | 1.022 ± 0.0069 |
| TTGTTTCGTT | 0.9804 ± 0.0073 |
| TGGTTATTGT | 0.974 ± 0.032 |
| GACTTCTTAG | 0.9573 ± 0.0041 |
| ATTAAACGGG | 0.997 ± 0.012 |
| TACAGGGGGG | 1 ± 0.027 |
| ATGGGTGATC | 1.01 ± 0.011 |
| GCCAGCATGG | 1.003 ± 0.0046 |
| CAGGGGGGAT | 1.04 ± 0.067 |
| TGAGGTAGGC | 1.05 ± 0.024 |
| GGCAGCCGGG | 0.97 ± 0.018 |
| GTCGTCGGAG | 1.03 ± 0.019 |
| TAGTGGGGGT | 1.01 ± 0.022 |
| AAGAGGTATA | 1.01 ± 0.032 |
| CATTAGGTGT | 1.16 ± 0.037 |
| ATTGTGCGAC | 1 ± 0.021 |
| GATTTTGTTT | 0.996 ± 0.027 |
| CCCTTGGTTA | 1.03 ± 0.032 |
| AGATTGGGGT | 1.01 ± 0.017 |
| TTTACGTGGA | 1.02 ± 0.028 |
| TTAGGGTCCC | 1.02 ± 0.016 |
| AATGTGCCGT | 1.07 ± 0.04 |

| Sequence | switch fluorescence ratio |
| --- | --- |
| AACGTAAATA | 1.11 ± 0.053 |
| GGTTTCGATA | 0.96836 ± 1.5e-05 |
| TTTCGTATGG | 1 ± 0.057 |
| GGTATGGACA | 0.997 ± 0.013 |
| CAGCAGGGGG | 1.07 ± 0.068 |
| CCTTACTTTT | 0.998 ± 0.036 |
| TGGAAGGGAG | 0.9738 ± 0.0083 |
| ATGAGTGCTT | 0.9776 ± 0.0075 |
| ATTACGTAGC | 1.428 ± 0.0063 |
| AAAGACAGGG | 0.976 ± 0.036 |
| ATGGTCAGGG | 0.987 ± 0.026 |
| TTGTGTCGCT | 1.0031 ± 0.0004 |
| TTTTAATGGA | 1.03 ± 0.029 |
| ACAATTTATT | 1.02 ± 0.051 |
| ATGGAGAGGG | 0.987 ± 0.037 |
| GGGCTGGGGC | 0.997 ± 0.11 |
| TACCTTTGGG | 1.02 ± 0.032 |
| ACCAAAAATG | 1.1 ± 0.13 |
| GCTTACGGGA | 1.028 ± 0.0016 |
| CGGCTTTCCC | 1.01 ± 0.028 |
| ACGTAACATG | 1.24 ± 0.015 |
| CCAGGGGGTG | 1.53 ± 0.32 |
| GCTTCGGAGA | 1.029 ± 0.0017 |

| Sequence | switch fluorescence ratio |
| --- | --- |
| CGTGGGACTC | 1.1401 ± 0.00046 |
| GTAGTATTAG | 1.032 ± 0.0043 |
| CGGTTTGGGG | 0.991 ± 0.027 |
| CGGAATATGG | 1.0484 ± 0.001 |
| AAGGTATCTG | 1.03 ± 0.03 |
| GGGTCTGGTA | 1.02 ± 0.038 |
| CTGCGTGGAG | 1.03 ± 0.026 |
| GGTTTGGACG | 0.981 ± 0.037 |
| TACTGGTGGT | 0.992 ± 0.016 |
| TCATAGTTTT | 1.01 ± 0.042 |
| TCCGAGGTTT | 1.28 ± 0.044 |
| GCTATATGTG | 0.98 ± 0.069 |
| TAGGGAAAAT | 0.9833 ± 0.0029 |
| GAAAATAACG | 1.11 ± 0.15 |
| TAGGGGTGCC | 0.98 ± 0.034 |
| TTGGGCCCCT | 0.9967 ± 0.0024 |
| TTCGTTTGCT | 0.955 ± 0.035 |
| TACGGTTACT | 1.27 ± 0.014 |
| TAAAGAGGGG | 1 ± 0.021 |
| TTCAGTTGGT | 0.987 ± 0.017 |
| CGTGACGAGC | 1.12 ± 0.062 |
| AGTCCAGTTT | 0.986 ± 0.013 |
| GTTATAAGTG | 0.9924 ± 0.0054 |

| Sequence | switch fluorescence ratio |
| --- | --- |
| TTAGAGGGGT | 0.992 ± 0.03 |
| AGTTACGGTG | 1 ± 0.025 |
| CAGCTTTGAG | 1.01 ± 0.037 |
| AGATAAAAGG | 0.998 ± 0.015 |
| GGGTTATTAT | 1.01 ± 0.019 |
| TTATAAGGAA | 0.981 ± 0.015 |
| AGGAGAACGG | 0.938 ± 0.011 |
| CTGCACCATG | 1.01 ± 0.028 |
| CTGGAACAGT | 0.976 ± 0.015 |
| AAGGGGGAGA | 0.994 ± 0.03 |
| GGGGGACACT | 1.01 ± 0.022 |
| GGCTCGTAGG | 1 ± 0.024 |
| TGTATGAGGT | 1.02 ± 0.013 |
| TCGATGCAAG | 1.23 ± 0.015 |
| GATAATTGAG | 1.04 ± 0.044 |
| TTTTGAAATA | 0.997 ± 0.017 |
| AGATCCTCTA | 1 ± 0.011 |
| TATCTTTTTC | 1.04 ± 0.084 |
| GCTAGGGCTT | 1.01 ± 0.062 |
| GCTACTTTGG | 1.06 ± 0.048 |
| TCCACTTATT | 1.05 ± 0.093 |
| ATATCGGCGT | 1.55 ± 0.82 |
| CCGTGTCATT | 1.013 ± 0.0023 |

| Sequence | switch fluorescence ratio |
| --- | --- |
| ATGGGGAGCG | 0.992 ± 0.031 |
| GAAGGCATGG | 1.03 ± 0.015 |
| TACGGGGGGT | 1.02 ± 0.026 |
| TTGTTTTTAT | 0.992 ± 0.03 |
| TTTCCCGGTG | 2.13 ± 0.039 |
| CATGTGCGAG | 1.01 ± 0.021 |
| AAAGGCGTCA | 1.01 ± 0.016 |
| TATTTTTGGA | 0.981 ± 0.043 |
| TAATAGGCCT | 1.026 ± 0.01 |
| ACTCGGGGGA | 1.018 ± 0.0035 |
| TTTTGTTGTT | 0.995 ± 0.035 |
| GGTCTAGATA | 0.99 ± 0.026 |
| TGTTATAGGG | 1.03 ± 0.033 |
| CCGTGTGGCT | 1.027 ± 0.0022 |
| GGAATCCATG | 0.977 ± 0.0013 |
| CTGTGGGTTA | 0.9595 ± 0.004 |
| AGATGGAGGC | 1.0705 ± 0.00017 |
| ATGGGGTGTT | 1 ± 0.024 |
| CGAGACCACA | 1.05 ± 0.043 |

From the supplement of paper PMC10126150
